{"source": "patent US7052704B2", "about": "“Methods and compositions for lipidization of hydrophilic molecules” (University of Southern California, priority 1995, dated 2006)", "molecules": {"B1": {"name": "BBI: hydrophilic protein which has low uptake into cells and is not orally bioavailable; used for chemoprevention (protein, UniProt P01055 40-110, looked up)", "Bowman-Birk type proteinase …": "DDESSKPCCDQCACTKSNPPQCRCSDMRLNSCHSACKSCICALSYPAQCFCVDITDFCYEPCKPSEDDKEN"}}, "key": {"[1]": {"experiment": "iv-biodistribution of 125I-BBI conjugates"}, "[2]": {"tested_on": "C3H 10T1/2(clone 8) cells", "experiment": "In vitro transformation assay (MCA-induced)", "assay_type": "cell-based", "details": "MCA 1 μg/ml 24 hr, then conjugates 1.0 μg/ml for first three weeks", "procedure": "Transformation assays were carried out using C3H 10T1/2(clone 8) cells according to the published recommendations [Reznikoff, C. A. et al. (1973) Cancer. Res. 33, 3239–3249; Reznikoff, C. A. et al. (1973) Cancer. Res. 33, 3231–3238]. Stock cultures of mycoplasma-free cells were maintained by passing 50,000 cells per 75 cm^2 flask every seven days. Using this schedule, the cells were always passed approximately 2 days before reaching confluence. The stock culture was grown in Eagle's basal medium supplemented with 10% FBS, penicillin (100 units), and streptomycin (100 μg) and used for the transformation assays at passages of 9 to 14. The cells were passed by treating the stock cells with trypsin (0.1%) in PBS for 5 min and quenching the trypsin with 5 ml of the medium. This procedure was adapted to minimize spontaneous transformation in the stock cultures and maximize the plating efficiency in the petri dishes. The FBS stock used in the cultures was pre-screened to ensure that the serum was able to support the expression and the growth of the transformed cells.\nFor the transformation assays, C3H 10T1/2 cells (1000/dish) were seeded into 60 mm petri dishes and allowed to grow in a humidified 5% CO2 atmosphere in Eagle's basal medium, supplemented with 10% FBS, penicillin (100 units), and streptomycin (100 μg), for 24 hr. Subsequently, the cells were initiated by treatment with 25 μl of the 3-methylcholanthrene (MCA) in acetone stock solution ([…]) to a final concentration of 1 μg/ml of MCA (5 μg/5 ml). The cells were allowed to grow in the presence of the carcinogen or solvent for 24 hr, and the medium in each dish was then replaced with fresh medium containing no carcinogen or solvent. The medium in the dishes was replaced twice per week for the first two weeks of the assay, and thereafter once a week for the remainder four weeks of the assay. In the experiments designed to determine the transformation inhibitory activity of the conjugates, the cells were maintained in the medium containing the conjugates (1 μg/ml) for the first three weeks of the assay; thereafter, the cells were maintained in medium containing no added conjugates.\nSix weeks after the carcinogen treatment, the cells were inspected under a microscope for adherence to the culture dishes and were washed with PBS and then fixed in 100% methanol. The fixed monolayers were then stained with Giemsa stain. 20 dishes per group were treated in each experiment. In addition to the test groups, all the transformation assays contained at least three other groups: negative control (not treated with carcinogen or solvent), acetone control (treated with 25 μl of acetone), and positive control [treated with MCA (1 μg/ml) in 25 μl of acetone]. The transformed foci (>3 mm in diameter) in the plates were studied under a microscope and classified according to published guidelines as types I, II, or III [Landolph, J. R. (1985) Transfomatin assay of established cell lines: Mechanism and Application (ed. Kakunaga, T., and Yamasaki, H.) IARC Scientific Publications, Lyon, France pp. 185–201]. Briefly, type III foci were dense, multilayered, basophilic, areas of cell growth which stained to a deep blue color with Giemsa and had rough criss-crossed edges. Type II foci were also dense, multilayered, areas of cell growth, but were stained to a purple color with Giemsa and had smoother, more defined edges compared to Type III foci. Type I foci were not scored in the assay.\nBBI, either as the free protein or in conjugated form to palmitic or oleic acid, was added to the cultures at 1.0 μg/ml for the first three weeks of the transformation assay period starting immediately after the MCA treatment. MCA-treated cells were exposed to 3-methylcholanthrene, dissolved in 25 /μl of acetone, at a concentration of 1 μg/ml for 24 hr. Acetone-treated cells were exposed to 25 μl of acetone for 24 hr only. […]"}, "[3]": {"tested_on": "Human colon carcinoma cells (Caco-2)", "experiment": "Uptake of 125I-BBI conjugates into Caco-2 cell monolayers"}, "[4]": {"details": "cited from earlier work"}}, "data": [{"molecule": "B1", "values": [{"measurement": "kidney accumulation", "setting": "[1]; 3 mg/kg", "result": "rapidly accumulated in the kidneys"}, {"measurement": "blood level and removal from circulation", "setting": "[1]; 3 mg/kg, 0.5, 3 and 24 hr", "result": "rapidly excreted from the body without attaining high blood levels"}, {"measurement": "transformed foci in the dishes scored", "setting": "[2]", "result": "no transformed foci"}, {"measurement": "Fraction of dishes containing transformed foci", "setting": "[2]; scored at six weeks", "result": 0}, {"measurement": "No. of dishes with transformed foci/No. of dishes", "setting": "[2]; scored at six weeks", "result": "0/20"}, {"measurement": "Uptake (ng BBI/mg of cell protein)/hr", "setting": "[3]; 1% FBS, 10 μg/ml, 60 min, 37° C., ± SEM, three monolayers", "result": "2.2 ± 0.17 (ng BBI/mg of cell protein)/hr"}, {"measurement": "Uptake (ng BBI/mg of cell protein)/hr", "setting": "[3]; 10% FBS, 10 μg/ml, 60 min, 37° C., ± SEM, three monolayers", "result": "1.3 ± 0.02 (ng BBI/mg of cell protein)/hr"}, {"measurement": "Uptake (ng BBI/mg of cell protein)/hr", "setting": "[3]; BSA/FA: fatty acid-loaded BSA 0.1% (3-molar excess of palmitic acid)", "result": "3.9 ± 0.00 (ng BBI/mg of cell protein)/hr"}, {"measurement": "Uptake (ng BBI/mg of cell protein)/hr", "setting": "[3]; BSA: fatty acid-free BSA 0.1%", "result": "4.8 ± 0.00 (ng BBI/mg of cell protein)/hr"}, {"measurement": "Uptake (ng BBI/mg of cell protein)/hr", "setting": "[3]; DTT-treated (50 mM, 5 min 60° C. and 25 min 37° C.), serum-free medium", "result": "5.2 ± 0.00 (ng BBI/mg of cell protein)/hr"}, {"measurement": "Uptake (ng BBI/mg of cell protein)/hr", "setting": "[3]; Untreated, serum-free medium", "result": "4.8 ± 0.00 (ng BBI/mg of cell protein)/hr"}, {"measurement": "effect of defatted-BSA on uptake", "setting": "[3]; defatted-BSA 0.1% in medium", "result": "not affected"}, {"measurement": "effect of fatty acid-loaded BSA on uptake", "setting": "[3]; fatty acid-loaded BSA 0.1%", "result": "again not affected"}, {"measurement": "Uptake (ng BBI/mg of cell protein)/hr", "setting": "[3]; serum free (BSA-free) Dulbecco medium", "result": "4.8 ± 0.00 (ng BBI/mg of cell protein)/hr"}, {"measurement": "Uptake (ng BBI/mg of cell protein)/hr", "setting": "[3]; serum free, 10 μg/ml, 60 min, 37° C., ± SEM, three monolayers", "result": "3.9 ± 0.19 (ng BBI/mg of cell protein)/hr"}, {"measurement": "effect of exposure to DTT on uptake", "setting": "[3]; serum-free medium", "result": "did not cause a reduction in the uptake"}, {"measurement": "oral bioavailability", "setting": "[4]", "result": "not orally bioavailable"}, {"measurement": "stability in the GI tract", "setting": "[4]; mammalian proteases in the gut, Yavelow et al. 1983", "result": "stable in the GI tract"}]}]}
